The values below come from the supplement of paper PMC10567573.

The chains are these.
B1: CAMK2A (parent)
chain: CIQQILEAVLHCHQMGVVHRDLKP
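Also: lentivirally expressed fusions sorted by FACS into six bins by GFP to DsRed ratio, PSI derived from sequencing read proportions per bin multiplied by bin number.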

The variants in this data set derive from B1. As to the kind of experiment: protein stability index of a GFP-peptide fusion (GPS, HEK-293T) (PSI 1-6); higher = more stable. Particulars: c terminus: a fixed tail appended.
With CIQQILEAVMHCHQMGVVHRDLKP [L10M], the protein stability index was found to be 3.74.

Consider CIQQILEAVNHCHQMGVVHRDLKP [L10N], for which the protein stability index was 2.05.

As to CIQQILEAVQHCHQMGVVHRDLKP [L10Q], the protein stability index was 2.19.

Regarding CIQQILEAVDHCHQMGVVHRDLKP [L10D], the protein stability index is 1.95.

Turning to CIQQILEAVHHCHQMGVVHRDLKP [L10H], the protein stability index worked out at 2.19.

In the case of CIQQILEAVRHCHQMGVVHRDLKP [L10R], the protein stability index is 2.37.

Consider CIQQILEAVSHCHQMGVVHRDLKP [L10S], for which the protein stability index stood at 2.21.

Regarding CIQQILEAVWHCHQMGVVHRDLKP [L10W], the protein stability index turned out to be 4.24.

Turning to CIQQILEAVPHCHQMGVVHRDLKP [L10P], the protein stability index stood at 1.66.

As for CIQQILEAVKHCHQMGVVHRDLKP [L10K], the protein stability index amounted to 1.9.

Turning to CIQQILEAVEHCHQMGVVHRDLKP [L10E], the protein stability index is 1.53.

For CIQQILEAVAHCHQMGVVHRDLKP [L10A], the protein stability index amounted to 1.35.

Turning to CIQQILEAVVHCHQMGVVHRDLKP [L10V], the protein stability index came to 3.33.

Consider CIQQILEAVTHCHQMGVVHRDLKP [L10T], for which the protein stability index came to 2.11.

As for CIQQILEAVGHCHQMGVVHRDLKP [L10G], the protein stability index turned out to be 1.67.

For the variant CIQQILEAVFHCHQMGVVHRDLKP [L10F], the protein stability index was determined as 2.72.

Turning to CIQQILEAVLHCHSMGVVHRDLKP [Q14S], the protein stability index worked out at 2.83.

Turning to CIQQILEAVLHCHNMGVVHRDLKP [Q14N], the protein stability index amounted to 1.28.

Turning to CIQQILEAVLHCHPMGVVHRDLKP [Q14P], the protein stability index is 2.

As for CIQQILEAVLHCHCMGVVHRDLKP [Q14C], the protein stability index was 2.78.

For CIQQILEAVLHCHRMGVVHRDLKP [Q14R], the protein stability index amounted to 1.94.

Turning to CIQQILEAVLHCHIMGVVHRDLKP [Q14I], the protein stability index stood at 2.86.

Take CIQQILEAVLHCHYMGVVHRDLKP [Q14Y]: the protein stability index was 3.42.

As for CIQQILEAVLHCHKMGVVHRDLKP [Q14K], the protein stability index turned out to be 3.21.

For CIQQILEAVLHCHAMGVVHRDLKP [Q14A], the protein stability index is 2.29.

In the case of CIQQILEAVLHCHFMGVVHRDLKP [Q14F], the protein stability index was found to be 2.94.

Consider CIQQILEAVLHCHWMGVVHRDLKP [Q14W], for which the protein stability index was found to be 2.76.

CIQQILEAVLHCHLMGVVHRDLKP [Q14L]: the protein stability index came out at 3.6.

As to CIQQILEAVLHCHDMGVVHRDLKP [Q14D], the protein stability index was determined as 3.09.

CIQQILEAVLHCHEMGVVHRDLKP [Q14E]: the protein stability index came to 3.49.

As for CIQQILEAVLHCHTMGVVHRDLKP [Q14T], the protein stability index is 3.88.

CIQQILEAVLHCHHMGVVHRDLKP [Q14H]: the protein stability index came to 2.38.

Consider CIQQILEAVLHCHQCGVVHRDLKP [M15C], for which the protein stability index was determined as 2.85.

For CIQQILEAVLHCHQYGVVHRDLKP [M15Y], the protein stability index was found to be 2.85.

On to CIQQILEAVLHCHQSGVVHRDLKP [M15S], for which the protein stability index was 2.6.

As to CIQQILEAVLHCHQDGVVHRDLKP [M15D], the protein stability index is 1.8.

CIQQILEAVLHCHQPGVVHRDLKP [M15P]: the protein stability index turned out to be 1.81.

On to CIQQILEAVLHCHQIGVVHRDLKP [M15I], for which the protein stability index amounted to 2.31.

Take CIQQILEAVLHCHQGGVVHRDLKP [M15G]: the protein stability index is 2.05.

Regarding CIQQILEAVLHCHQEGVVHRDLKP [M15E], the protein stability index worked out at 2.68.

Take CIQQILEAVLHCHQWGVVHRDLKP [M15W]: the protein stability index worked out at 3.1.

As to CIQQILEAVLHCHQFGVVHRDLKP [M15F], the protein stability index is 1.84.

For the variant CIQQILEAVLHCHQNGVVHRDLKP [M15N], the protein stability index stood at 1.52.

As for CIQQILEAVLHCHQKGVVHRDLKP [M15K], the protein stability index was found to be 2.42.

As for CIQQILEAVLHCHQVGVVHRDLKP [M15V], the protein stability index stood at 2.57.

Consider CIQQILEAVLHCHQQGVVHRDLKP [M15Q], for which the protein stability index was 1.22.

As to CIQQILEAVLHCHQHGVVHRDLKP [M15H], the protein stability index is 2.24.

For the variant CIQQILEAVLHCHQMGVAHRDLKP [V18A], the protein stability index was 2.83.

Consider CIQQILEAVLHCHQMGVDHRDLKP [V18D], for which the protein stability index came to 2.78.

In the case of CIQQILEAVLHCHQMGVFHRDLKP [V18F], the protein stability index was 1.78.

For the variant CIQQILEAVLHCHQMGVRHRDLKP [V18R], the protein stability index was determined as 1.68.

Turning to CIQQILEAVLHCHQMGVTHRDLKP [V18T], the protein stability index amounted to 2.33.

Regarding CIQQILEAVLHCHQMGVKHRDLKP [V18K], the protein stability index came out at 2.97.

As for CIQQILEAVLHCHQMGVEHRDLKP [V18E], the protein stability index amounted to 1.63.

Turning to CIQQILEAVLHCHQMGVHHRDLKP [V18H], the protein stability index was 3.82.

For CIQQILEAVLHCHQMGVYHRDLKP [V18Y], the protein stability index is 2.35.

Take CIQQILEAVLHCHQMGVNHRDLKP [V18N]: the protein stability index stood at 2.84.

Turning to CIQQILEAVLHCHQMGVCHRDLKP [V18C], the protein stability index came to 2.28.

With CIQQILEAVLHCHQMGVQHRDLKP [V18Q], the protein stability index is 3.46.

Consider CIQQILEAVLHCHQMGVIHRDLKP [V18I], for which the protein stability index is 2.

Take CIQQILEAVLHCHQMGVPHRDLKP [V18P]: the protein stability index was 2.35.

For CIQQILEAVLHCHQMGVSHRDLKP [V18S], the protein stability index was 1.92.

In the case of CIQQILEAVLHCHQMGVGHRDLKP [V18G], the protein stability index is 2.31.

With CIQQILYAVLHCHQMGVVHRDLKP [E7Y], the protein stability index worked out at 4.43.

In the case of CIQQILTAVLHCHQMGVVHRDLKP [E7T], the protein stability index was found to be 1.99.

In the case of CIQQILWAVLHCHQMGVVHRDLKP [E7W], the protein stability index is 2.78.

CIQQILVAVLHCHQMGVVHRDLKP [E7V]: the protein stability index was found to be 1.8.

With CIQQILEAVLHCHQMGVVRRDLKP [H19R], the protein stability index came to 2.92.

For CIQQILEAVLHCHQMGVVKRDLKP [H19K], the protein stability index stood at 2.34.

Consider CIQQILEAVLHCHQMGVVSRDLKP [H19S], for which the protein stability index came to 2.53.

In the case of CIQQILEAVLHCHQMGVVYRDLKP [H19Y], the protein stability index stood at 2.79.

Turning to CIQQILEAVLHCHQMGVVIRDLKP [H19I], the protein stability index turned out to be 2.01.

Consider CIQQILEAVLHCHQMGVVCRDLKP [H19C], for which the protein stability index is 1.84.

In the case of CIQQILEAVLHCHQMGVVTRDLKP [H19T], the protein stability index turned out to be 3.67.

As to CIQQILEAVLHCHQMGVVGRDLKP [H19G], the protein stability index is 3.33.

Regarding CIQQILEAVLHCHQMGVVWRDLKP [H19W], the protein stability index came out at 3.38.

With CIQQILEAVLHCHQMGVVMRDLKP [H19M], the protein stability index is 2.59.

For the variant CIQQILEAVLHCHQMGVVDRDLKP [H19D], the protein stability index worked out at 2.72.

As to CIQQILEAVLHCHQMGVVLRDLKP [H19L], the protein stability index came out at 1.9.

On to CIQQILEAVLHCHQMGVVFRDLKP [H19F], for which the protein stability index worked out at 3.5.

CIQQILEAVLHCHQMGVVERDLKP [H19E]: the protein stability index came out at 3.29.

With CIQQILEAVLHCHQMGRVHRDLKP [V17R], the protein stability index worked out at 3.99.

CIQQILEAVLHCHQMGCVHRDLKP [V17C]: the protein stability index turned out to be 2.21.

CIQQILEAVLHCHQMGDVHRDLKP [V17D]: the protein stability index came out at 2.57.

As for CIQQILEAVLHCHQMGAVHRDLKP [V17A], the protein stability index was determined as 1.8.

As to CIQQILEAVLHCHQMGPVHRDLKP [V17P], the protein stability index was 2.65.

With CIQQILEAVLHCHQMGMVHRDLKP [V17M], the protein stability index came out at 2.44.

As for CIQQILEAVLHCHQMGQVHRDLKP [V17Q], the protein stability index came out at 2.79.

On to CIQQILEAVLHCHQMGNVHRDLKP [V17N], for which the protein stability index came out at 3.21.

In the case of CIQQILEAVLHCHQMGGVHRDLKP [V17G], the protein stability index was 3.75.

Turning to CIQQILEAVLHCHQMGEVHRDLKP [V17E], the protein stability index is 2.01.

Consider CIQQILEAVLHCHQMGHVHRDLKP [V17H], for which the protein stability index amounted to 1.99.

Turning to CIQQILEAVLHCHQMGYVHRDLKP [V17Y], the protein stability index was 3.53.

Take CIQQILEAVLHCHQMGFVHRDLKP [V17F]: the protein stability index was 1.59.
